Key:
[1] = target: T1, amphyphisin SH3 (AMPH_HUMAN), P49418; assay: SPOT array
T1 chain: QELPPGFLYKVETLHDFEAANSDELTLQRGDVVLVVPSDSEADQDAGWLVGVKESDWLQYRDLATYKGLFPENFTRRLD

[2] = target: endophilin SH3 (SH3G2_HUMAN), Q99962; assay: SPOT array

normalised SPOT signal, Boehringer light units (BLU); mean over the file's lines of this peptide [1]	normalised SPOT signal, Boehringer light units (BLU); mean over the file's lines of this peptide [2]	Binder
51	77.2	SPPELKRPRLDENK [Q13112 538-551]
72.6	1800	SSGRPGRPPGPAAA [Q99491 157-171]
48.2	78.5	SPAPPHKPPNTREN [P51816 884-898]
1780	22000	SPSVPKRPKLPAPT [P18887 266-279]
15.7	35.9	SPDKFKRPTPPPSP [Q16204 419-432]
1010	1210	SPRALWRPPRRRTQ [O94807 430-443]
58.5	744	SMFFIRRPTLDINW [O94848 219-232]
66.5	112	SPTVPIKPPSIPNG [Q13557 471-485]
399	4080	SPVLPARPPPPPLS [O00508 1114-1128]
44.7	2540	SQALPPRPPPPAPV [Q13330 692-706]
52.9	33	SPQEPKRPSQLPSP [O14686 4038-4051]
56.4	69.3	SPPSPDRPPHSQTS [Q03164 2117-2131]
5540	9620	SLPLPKRPRRGAAP [O14746 231-244]
1290	4830	SPRLPRRPTVESHH [O94883 131-144]
713	1520	SPVLPARPPPPPLP [O75412 1038-1052]
47.9	67.1	SPSVPAKPPLAEFE [Q15742 478-492]
228	117	SPKSPGRPWKSVSE [P01042 611-624]
587	437	SPQAPRRPLPQVAT [Q13421 406-419]
2430	190	SPGVLRRPRRRPAA [Q9Y469 13-26]
31.7	56.3	SPVHLRRPQSPGAS [Q9Y556 324-337]
62.1	319	SPEAPRRPKQRPAP [O00294 24-37]

Continued, binder first:

Binder	normalised SPOT signal, Boehringer light units (BLU); mean over the file's lines of this peptide [1]	normalised SPOT signal, Boehringer light units (BLU); mean over the file's lines of this peptide [2]
SNPVPPRPPPPSLA [Q9UBP0 16-30]	143	11600
SLPSPSKPPIQQPT [Q9Y6V0 260-274]	55.1	94.9
SPGPPYRPPSQRLR [Q8WVQ2 69-83]	547	5840
SQGPLQRPSRLVFT [Q9UK00 141-154]	1370	69.8
SSELIERPSKKDGF [Q9H0X9 173-186]	120	71.5
SQAFIYRPIRQRVY [Q9NU43 22-35]	621	102
SPIKPKRPFVESNV [Q9ULS2 141-154]	120	2110
SAVGPNRPPTVSQP [Q9UFD8 131-145]	51.4	969
SLRVPKRPIINTPV [Q9HCU4 2269-2282]	53.7	2480
SSGSPDRPGRRGRR [Q9BXQ6 174-187]	3220	150
SLMTPRRPLSTSEK [Q9H5L8 147-160]	70	1480
SPPVPPRPPSSGPP [Q9UKN7 661-675]	1270	1880
SMGPPSKPPDEEHR [Q9NZ56 228-242]	49.6	44.5
SQEILRRPIVASEL [Q9UHW3 40-53]	21.1	53.9
SLPRPRRPLPTQQQ [Q9P0U4 231-244]	509	3100
SLRKLKRPPPPPRR [Q9P206 440-453]	78.1	199
SPGFPARPGRGRPY [Q9UQ90 30-43]	568	754
SLVLPSRPPIGLPP [Q9UHI4 161-175]	40.4	72.4
SNTPPPRPPKPSHL [Q8WWW8 303-317]	2120	18000
SPDSLSRPRRTVFT [Q9P217 544-557]	482	90.9
SPARPRRPHASRDG [Q9H8S7 107-120]	13800	8710

From publication PMC314469, “Protein Interaction Networks by Proteome Peptide Scanning” (PLoS Biology, 2004)
